Values quoted from earlier work as cited in article PMC7321218, “Synthetic (E)-3-Phenyl-5-(phenylamino)-2-styryl-1,3,4-thiadiazol-3-ium Chloride Derivatives as Promising Chemotherapy Agents on Cell Lines Infected with HTLV-1” (Molecules, 2020).

Tested on: adult T-cell leukemia/lymphoma (ATLL)
Parameters: method as in PMID 25733162
Details: in combination with multi-agent chemotherapy, improved from 33%; cited from earlier work

B1: Mogamulizumab: anti-CCR4 monoclonal antibody (antibody, chains of the INN, looked up, V domains shown)
VH: EVQLVESGGDLVQPGRSLRLSCAASGFIFSNYGMSWVRQAPGKGLEWVATISSASTYSYYPDSVKGRFTISRDNAKNSLYLQMNSLRVEDTALYYCGRHSDGNFAFGYWGQGTLVTVSS
VL: DVLMTQSPLSLPVTPGEPASISCRSSRNIVHINGDTYLEWYLQKPGQSPQLLIYKVSNRFSGVPDRFSGSGSGTDFTLKISRVEAEDVGVYYCFQGSLLPWTFGQGTKVEIK
therapy response: 52%
